The text below walks through data of patent publication US12721801B2, “Compositions and methods relating to stimulation of hyaluronic acid” (Alastin Skincare, Inc., priority 2020, dated 2026).

One assay relates to human dermal fibroblasts. Conditions: cited from earlier work.
For another assay, the system named is human fibroblast cells. As to the kind of experiment: HA production assessment, SDS-PAGE of fibroblast supernatants. Format: cell-based. The settings on record: Experiment 2, primary adult human dermal fibroblasts, 72 hours, octapeptide 100 ug/mL, SymDecanox 250 ug/mL, others 500 ug/mL, FIG. 6. How it is done: In a second experiment, HA production was also assessed with the test compounds below. Briefly, primary adult human dermal fibroblast cells were cultured until near confluent in 6 well plates. The cells were treated with the compounds and concentrations indicated to the right. After 72 hours, 100 μL of media were collected from each treatment condition and was concentrated in a SpeedVac concentrator to a final volume of ~10 uL.
All 10 μL of the supernatants were loaded onto an acrylamide gel (NuPAGE 4-12% Bis-Tris Protein Gel) and run at 200V for 3 hours. The gel was stained to detect the presence of HA. Data is seen in FIG. 6. […] Lane 11 is the negative control, representing the untreated cells. This band represents the cells constitutive level of HA. Treating the cells with all the indicated compounds (lanes 1-10) produced an increased level of high molecular weight HA. […]

B1: Lactoferrin: a transferrin; wound healing attributes, increases HA secretion (protein, UniProt P02788 20-710, looked up)
Lactotransferrin: GRRRSVQWCAVSQPEATKCFQWQRNMRKVRGPPVSCIKRDSPIQCIQAIAENRADAVTLDGGFIYEAGLAPYKLRPVAAEVYGTERQPRTHYYAVAVVKKGGSFQLNELQGLKSCHTGLRRTAGWNVPIGTLRPFLNWTGPPEPIEAAVARFFSASCVPGADKGQFPNLCRLCAGTGENKCAFSSQEPYFSYSGAFKCLRDGAGDVAFIRESTVFEDLSDEAERDEYELLCPDNTRKPVDKFKDCHLARVPSHAVVARSVNGKEDAIWNLLRQAQEKFGKDKSPKFQLFGSPSGQKDLLFKDSAIGFSRVPPRIDSGLYLGSGYFTAIQNLRKSEEEVAARRARVVWCAVGEQELRKCNQWSGLSEGSVTCSSASTTEDCIALVLKGEADAMSLDGGYVYTAGKCGLVPVLAENYKSQQSSDPDPNCVDRPVEGYLAVAVVRRSDTSLTWNSVKGKKSCHTAVDRTAGWNIPMGLLFNQTGSCKFDEYFSQSCAPGSDPRSNLCALCIGDEQGENKCVPNSNERYYGYTGAFRCLAENAGDVAFVKDVTVLQNTDGNNNEAWAKDLKLADFALLCLDGKRKPVTEARSCHLAMAPNHAVVSRMDKVERLKQVLLHQQAKFGRNGSDCPDKFCLFQSETKNLLFNDNTECLARLHGKTTYEKYLGPQYVAGITNLKKCSTSPLLEACEFLRK
Regarding B1, the HA secretion result with human dermal fibroblasts (literature (Saito et al. 2011)) is recorded as “increases HA secretion”. For the same molecule, the Proliferation of fibroblasts result with human dermal fibroblasts (literature (Saito et al. 2011; Takayama 2012)) is “promotes proliferation of fibroblasts”. Further, the “Level of high molecular weight HA (band on gel)” value in the assay with human fibroblast cells was “secrete high molecular weight HA”.
